In the Immune Epitope Database (IEDB):

Key:
HLA-A*23:01 = experiment: IEDB peptide-MHC binding, purified MHC/direct/fluorescence; filed as Kd, often an IC50 or EC50 that approximates it; ≥ and ≤ were set here for values at or beyond the usual limits of such assays
HLA-A*24:03 [1] = experiment: as above
HLA-A*31:01 [2] = experiment: IEDB peptide-MHC binding, purified MHC/competitive/fluorescence; filed as Kd, often an IC50 or EC50 that approximates it; ≥ and ≤ were set here for values at or beyond the usual limits of such assays; conditions: source organism: Bacillus anthracis str. A0488
HLA-A*24:03 [3] = experiment: as above
HLA-B*07:02 = experiment: IEDB peptide-MHC binding, purified MHC/direct/fluorescence; filed as Kd, often an IC50 or EC50 that approximates it; ≥ and ≤ were set here for values at or beyond the usual limits of such assays; conditions: source organism: Mammarenavirus lassaense
HLA-B*48:01 = experiment: as above
HLA-B*27:05 = experiment: as above
HLA-B*18:01 [4] = experiment: as above
HLA-A*69:01 [5] = experiment: as above; conditions: source organism: Mammarenavirus lassaense
HLA-B*39:01 [6] = experiment: as above
HLA-A*11:01 = experiment: as above; conditions: source organism: Mammarenavirus lassaense
HLA-B*57:01 [7] = experiment: as above
HLA-A*02:01 [8] = experiment: as above
HLA-A*03:01 [9] = experiment: as above
HLA-B*44:02 = experiment: as above
HLA-A*31:01 [10] = experiment: as above
HLA-B*40:01 = experiment: as above; conditions: source organism: Mammarenavirus lassaense
HLA-B*58:01 = experiment: as above; conditions: source organism: Mammarenavirus lassaense
HLA-A*01:01 = experiment: as above
HLA-B*15:01 [11] = experiment: as above
HLA-B*46:01 [12] = experiment: as above
HLA-A*29:02 = experiment: as above
HLA-B*18:01 [13] = experiment: IEDB peptide-MHC binding, purified MHC/competitive/fluorescence; filed as Kd, often an IC50 or EC50 that approximates it; ≥ and ≤ were set here for values at or beyond the usual limits of such assays
HLA-A*68:02 [14] = experiment: as above
HLA-A*69:01 [15] = experiment: as above
HLA-B*27:03 = experiment: as above
HLA-B*39:01 [16] = experiment: as above
HLA-B*57:01 [17] = experiment: as above
HLA-A*02:01 [18] = experiment: as above
HLA-A*03:01 [19] = experiment: as above
HLA-A*26:01 = experiment: as above
HLA-A*02:11 [20] = experiment: as above; conditions: source organism: Escherichia coli
HLA-A*02:12 [21] = experiment: as above
HLA-B*15:17 = experiment: as above
HLA-B*15:01 [22] = experiment: as above
HLA-B*46:01 [23] = experiment: as above
HLA-A*02:19 [24] = experiment: as above
HLA-B*51:01 = experiment: as above
HLA-A*02:03 [25] = experiment: as above; conditions: source organism: Yersinia mollaretii ATCC 43969
HLA-A*02:03 [26] = experiment: IEDB peptide-MHC binding, purified MHC/direct/fluorescence; filed as Kd, often an IC50 or EC50 that approximates it; ≥ and ≤ were set here for values at or beyond the usual limits of such assays; conditions: source organism: Orthohantavirus andesense
HLA-A*02:12 [27] = experiment: as above
HLA-A*02:19 [28] = experiment: as above; conditions: source organism: Orthohantavirus andesense
HLA-A*68:02 [29] = experiment: as above; conditions: source organism: Orthohantavirus tulaense
HLA-A*02:11 [30] = experiment: as above; conditions: source organism: Orthohantavirus tulaense
[31] = source organism: Cryptosporidium parvum Iowa II
[32] = source organism: Mammarenavirus lassaense
[33] = source organism: Escherichia coli
[34] = source organism: Yersinia mollaretii ATCC 43969
[35] = source organism: Orthohantavirus andesense
[36] = source organism: Isla Vista hantavirus
[37] = source organism: Orthohantavirus tulaense
[38] = source organism: Orthohantavirus puumalaense
[39] = source organism: Vibrio vulnificus CMCP6

CIIGTVSKF was tested, and the Kd (HLA-A*23:01; source organism: Amur virus) was 0.097 µM and the Kd (HLA-A*24:03 [1]; source organism: Amur virus) was 0.049 µM.

With GFKRGIFIF the Kd (HLA-A*23:01; [31]) was 0.002 µM and the Kd (HLA-A*24:03 [1]; [31]) was at most 0.001 µM.

HFFESLYAR was tested, and the Kd (HLA-A*31:01 [2]) was 0.0016 µM and the Kd (HLA-A*24:03 [3]; source organism: Bacillus anthracis str. A0488) was 4.13 µM.

Sequence KHDEEFCDM has a Kd (HLA-B*07:02) of at least 20 µM, a Kd (HLA-B*48:01; [32]) of at least 20 µM and a Kd (HLA-B*27:05; [32]) of at least 20 µM. For the same sequence, the Kd (HLA-B*18:01 [4]; [32]) was at least 20 µM, the Kd (HLA-A*69:01 [5]) was at least 20 µM and the Kd (HLA-B*39:01 [6]; [32]) was at least 20 µM. It also gave a Kd (HLA-A*11:01) of at least 20 µM, a Kd (HLA-B*57:01 [7]; [32]) of at least 20 µM and a Kd (HLA-A*02:01 [8]; [32]) of at least 20 µM. For the same sequence, the Kd (HLA-A*03:01 [9]; [32]) was at least 20 µM, the Kd (HLA-B*44:02; [32]) was at least 20 µM and the Kd (HLA-A*31:01 [10]; [32]) was at least 20 µM. The Kd (HLA-B*40:01) was at least 20 µM, the Kd (HLA-B*58:01) was at least 20 µM and the Kd (HLA-A*01:01; [32]) was at least 20 µM. It also gave a Kd (HLA-B*15:01 [11]; [32]) of at least 20 µM, a Kd (HLA-B*46:01 [12]; [32]) of at least 20 µM and a Kd (HLA-A*29:02; [32]) of at least 20 µM.

For MFWKLPPWL, the Kd (HLA-B*18:01 [13]; [33]) was at least 20 µM, the Kd (HLA-A*68:02 [14]; [33]) was at least 20 µM and the Kd (HLA-A*69:01 [15]; [33]) was at least 20 µM. For the same sequence, the Kd (HLA-B*27:03; [33]) was at least 20 µM, the Kd (HLA-B*39:01 [16]; [33]) was at least 20 µM and the Kd (HLA-B*57:01 [17]; [33]) was at least 20 µM. The Kd (HLA-A*02:01 [18]; [33]) was at least 20 µM, the Kd (HLA-A*03:01 [19]; [33]) was at least 20 µM and the Kd (HLA-A*26:01; [33]) was at least 20 µM. For the same sequence, the Kd (HLA-A*02:11 [20]) was 0.0136 µM, the Kd (HLA-A*02:12 [21]; [33]) was at least 20 µM and the Kd (HLA-B*15:17; [33]) was at least 20 µM. It also gave a Kd (HLA-B*15:01 [22]; [33]) of at least 20 µM, a Kd (HLA-B*46:01 [23]; [33]) of at least 20 µM and a Kd (HLA-A*02:19 [24]; [33]) of at least 20 µM. For the same sequence, the Kd (HLA-B*51:01; [33]) was at least 20 µM.

MMWIPGWFG gave a Kd (HLA-A*02:03 [25]) of at least 20 µM, a Kd (HLA-B*18:01 [13]; [34]) of at least 20 µM and a Kd (HLA-A*68:02 [14]; [34]) of at least 20 µM. The Kd (HLA-B*27:03; [34]) was at least 20 µM, the Kd (HLA-B*39:01 [16]; [34]) was at least 20 µM and the Kd (HLA-B*57:01 [17]; [34]) was at least 20 µM. The Kd (HLA-A*02:01 [18]; [34]) was at least 20 µM, the Kd (HLA-A*03:01 [19]; [34]) was at least 20 µM and the Kd (HLA-A*26:01; [34]) was at least 20 µM. For the same sequence, the Kd (HLA-A*02:12 [21]; [34]) was 0.185 µM, the Kd (HLA-B*15:17; [34]) was at least 20 µM and the Kd (HLA-B*15:01 [22]; [34]) was at least 20 µM. The Kd (HLA-B*46:01 [23]; [34]) was at least 20 µM, the Kd (HLA-A*02:19 [24]; [34]) was at least 20 µM and the Kd (HLA-B*51:01; [34]) was at least 20 µM. It also gave a Kd (HLA-A*24:03 [3]; [34]) of at least 20 µM.

For QYTRNSFYI, the Kd (HLA-A*24:03 [3]; source organism: Escherichia coli 536) was 0.0003 µM.

RWASGVSEI gave a Kd (HLA-A*02:03 [26]) of at least 20 µM, a Kd (HLA-A*03:01 [9]; [35]) of at least 20 µM and a Kd (HLA-A*02:12 [27]; [35]) of at least 20 µM. It also gave a Kd (HLA-A*02:19 [28]) of at least 20 µM, a Kd (HLA-B*18:01 [13]; [35]) of at least 20 µM and a Kd (HLA-B*27:03; [35]) of at least 20 µM. For the same sequence, the Kd (HLA-B*39:01 [16]; [35]) was at least 20 µM, the Kd (HLA-B*57:01 [17]; [35]) was at least 20 µM and the Kd (HLA-A*26:01; [35]) was at least 20 µM. For the same sequence, the Kd (HLA-B*46:01 [23]; [35]) was at least 20 µM, the Kd (HLA-B*51:01; [35]) was at least 20 µM and the Kd (HLA-A*24:03 [3]; [35]) was 0.0002 µM.

SSLRYGNVL gave a Kd (HLA-B*48:01; [36]) of at least 20 µM, a Kd (HLA-B*27:05; [36]) of at least 20 µM and a Kd (HLA-B*18:01 [4]; [36]) of at least 20 µM. The Kd (HLA-A*68:02 [29]) was at least 20 µM, the Kd (HLA-B*39:01 [6]; [36]) was 4 µM and the Kd (HLA-B*57:01 [7]; [36]) was at least 20 µM. For the same sequence, the Kd (HLA-A*02:01 [8]; [36]) was at least 20 µM, the Kd (HLA-A*03:01 [9]; [36]) was at least 20 µM and the Kd (HLA-A*02:11 [30]) was at least 20 µM. The Kd (HLA-A*02:12 [27]; [37]) was at least 20 µM, the Kd (HLA-B*44:02; [36]) was at least 20 µM and the Kd (HLA-A*31:01 [10]; [36]) was at least 20 µM. For the same sequence, the Kd (HLA-A*01:01; [36]) was at least 20 µM, the Kd (HLA-B*15:01 [11]; [36]) was at least 20 µM and the Kd (HLA-B*46:01 [12]; [36]) was at least 20 µM. The Kd (HLA-A*29:02; [36]) was at least 20 µM, the Kd (HLA-A*24:03 [1]; [37]) was at least 20 µM and the Kd (HLA-A*69:01 [15]; [38]) was at least 20 µM. It also gave a Kd (HLA-B*27:03; [38]) of at least 20 µM, a Kd (HLA-A*26:01; [38]) of at least 20 µM and a Kd (HLA-B*51:01; [38]) of at least 20 µM.

For SVYFAAFAF, the Kd (HLA-A*23:01; [39]) was 0.016 µM, the Kd (HLA-A*24:03 [1]; [39]) was 0.066 µM and the Kd (HLA-B*46:01 [23]; source organism: Vibrio vulnificus YJ016) was at least 20 µM.
